Reference: publication PMC10786891, “Massively parallel profiling of RNA-targeting CRISPR-Cas13d”

T1: EsCas13d, nuclease-dead (Eubacterium siraeum, UniProt B0MS50, R295A;H300A;R849A;H854A)
T1 sequence: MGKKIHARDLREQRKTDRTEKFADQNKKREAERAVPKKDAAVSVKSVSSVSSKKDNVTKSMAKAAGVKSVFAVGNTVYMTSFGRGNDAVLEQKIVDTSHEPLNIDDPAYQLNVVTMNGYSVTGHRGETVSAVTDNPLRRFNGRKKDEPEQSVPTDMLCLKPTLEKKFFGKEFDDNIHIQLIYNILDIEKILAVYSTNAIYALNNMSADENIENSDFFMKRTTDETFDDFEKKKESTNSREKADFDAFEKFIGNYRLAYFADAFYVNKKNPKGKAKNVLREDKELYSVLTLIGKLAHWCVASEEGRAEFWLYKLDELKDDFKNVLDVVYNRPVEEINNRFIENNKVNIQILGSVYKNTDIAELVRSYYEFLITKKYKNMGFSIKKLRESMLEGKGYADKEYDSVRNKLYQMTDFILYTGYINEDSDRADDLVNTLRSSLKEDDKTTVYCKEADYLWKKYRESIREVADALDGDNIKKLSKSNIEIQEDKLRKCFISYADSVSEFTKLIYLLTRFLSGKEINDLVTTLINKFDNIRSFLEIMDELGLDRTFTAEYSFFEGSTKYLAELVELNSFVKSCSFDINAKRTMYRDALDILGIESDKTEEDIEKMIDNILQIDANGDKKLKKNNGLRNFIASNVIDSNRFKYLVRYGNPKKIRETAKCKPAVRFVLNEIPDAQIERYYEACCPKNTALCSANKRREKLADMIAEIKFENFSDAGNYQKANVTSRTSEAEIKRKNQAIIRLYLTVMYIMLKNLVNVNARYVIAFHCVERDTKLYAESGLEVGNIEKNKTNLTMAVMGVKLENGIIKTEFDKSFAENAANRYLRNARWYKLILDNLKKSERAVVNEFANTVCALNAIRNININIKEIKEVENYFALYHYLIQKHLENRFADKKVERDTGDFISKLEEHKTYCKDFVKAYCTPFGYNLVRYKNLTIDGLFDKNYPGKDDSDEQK


What follows are binders tested against T1, EsCas13d, nuclease-dead (assay: crRNA (strand 1, pre-loaded); Mg2+; 40 mM Tris-HCl pH 7.5, 150 mM NaCl, 6 mM MgCl2, 1 mM DTT, 0.1% Tween-20, 0.2 mg/ml BSA; 25 C; 10 min per concentration, then washed). Details: tags: His6-TwinStrep-SUMO cleaved; N-terminal SNAP kept (SNAP-Surface 488); label: 3' end held by stalled T7 RNA polymerase.

Binder	Kd
target 1 insC 3' of 9,insA 3' of 2 (mixed) RNA 1: CACCCGUGCAAAAAUGCAGGGGUCUAAAACUGAGCGGAUAACCUCUCUAUGG RNA 2: GGGAAUGGAUCCACAUCUACGAAUUCGUACCAUAGAGAGGUUACUCCGCUCAACCGAGAUCGGAAGAGCACACGU	12.3 ± 0.7 nM
target 1 insC 3' of 9,insC 3' of 1 (mixed) RNA 1: CACCCGUGCAAAAAUGCAGGGGUCUAAAACUGAGCGGAUAACCUCUCUAUGG RNA 2: GGGAAUGGAUCCACAUCUACGAAUUCGUACCAUAGAGAGGUUACUCCGCUCACCCGAGAUCGGAAGAGCACACGU	9.4 ± 0.6 nM
target 2 MT 5'PFS GCC 3'PFS AUC (mixed) RNA 1: CACCCGUGCAAAAUUGCAGGGGUCUAAAACCUUCUCCAAAUUGUUUCAUCCU RNA 2: GGGAAUGGAUCCACAUCUACGAAUUCGCCAGGAUGAAACAAUUUGGAGAAGAUCAGAUCGGAAGAGCACACGU	12.7 ± 1.1 nM
target 2 MT 5'PFS GAC 3'PFS UUG (mixed) RNA 1: CACCCGUGCAAAAUUGCAGGGGUCUAAAACCUUCUCCAAAUUGUUUCAUCCU RNA 2: GGGAAUGGAUCCACAUCUACGAAUUCGACAGGAUGAAACAAUUUGGAGAAGUUGAGAUCGGAAGAGCACACGU	15 ± 4 nM
target 2 MT 5'PFS AGA 3'PFS CCA (mixed) RNA 1: CACCCGUGCAAAAUUGCAGGGGUCUAAAACCUUCUCCAAAUUGUUUCAUCCU RNA 2: GGGAAUGGAUCCACAUCUACGAAUUCAGAAGGAUGAAACAAUUUGGAGAAGCCAAGAUCGGAAGAGCACACGU	~24 nM
target 2 MT 5'PFS GAC 3'PFS UUA (mixed) RNA 1: CACCCGUGCAAAAUUGCAGGGGUCUAAAACCUUCUCCAAAUUGUUUCAUCCU RNA 2: GGGAAUGGAUCCACAUCUACGAAUUCGACAGGAUGAAACAAUUUGGAGAAGUUAAGAUCGGAAGAGCACACGU	14.3 ± 3 nM
target 2 MT 5'PFS AUU 3'PFS AGG (mixed) RNA 1: CACCCGUGCAAAAUUGCAGGGGUCUAAAACCUUCUCCAAAUUGUUUCAUCCU RNA 2: GGGAAUGGAUCCACAUCUACGAAUUCAUUAGGAUGAAACAAUUUGGAGAAGAGGAGAUCGGAAGAGCACACGU	13 ± 2.9 nM
target 2 MT 5'PFS UAA 3'PFS UAU (mixed) RNA 1: CACCCGUGCAAAAUUGCAGGGGUCUAAAACCUUCUCCAAAUUGUUUCAUCCU RNA 2: GGGAAUGGAUCCACAUCUACGAAUUCUAAAGGAUGAAACAAUUUGGAGAAGUAUAGAUCGGAAGAGCACACGU	3.7 ± 1 nM
target 2 MT 5'PFS AGG 3'PFS UAA (mixed) RNA 1: CACCCGUGCAAAAUUGCAGGGGUCUAAAACCUUCUCCAAAUUGUUUCAUCCU RNA 2: GGGAAUGGAUCCACAUCUACGAAUUCAGGAGGAUGAAACAAUUUGGAGAAGUAAAGAUCGGAAGAGCACACGU	4.9 ± 1.1 nM
target 2 MT 5'PFS GCC 3'PFS AUA (mixed) RNA 1: CACCCGUGCAAAAUUGCAGGGGUCUAAAACCUUCUCCAAAUUGUUUCAUCCU RNA 2: GGGAAUGGAUCCACAUCUACGAAUUCGCCAGGAUGAAACAAUUUGGAGAAGAUAAGAUCGGAAGAGCACACGU	10.4 ± 1.8 nM
target 2 MT 5'PFS AGA 3'PFS CCG (mixed) RNA 1: CACCCGUGCAAAAUUGCAGGGGUCUAAAACCUUCUCCAAAUUGUUUCAUCCU RNA 2: GGGAAUGGAUCCACAUCUACGAAUUCAGAAGGAUGAAACAAUUUGGAGAAGCCGAGAUCGGAAGAGCACACGU	8.3 ± 1.1 nM
target 2 MT 5'PFS GAC 3'PFS UUC (mixed) RNA 1: CACCCGUGCAAAAUUGCAGGGGUCUAAAACCUUCUCCAAAUUGUUUCAUCCU RNA 2: GGGAAUGGAUCCACAUCUACGAAUUCGACAGGAUGAAACAAUUUGGAGAAGUUCAGAUCGGAAGAGCACACGU	33 ± 12 nM
target 2 MT 5'PFS GCC 3'PFS AUG (mixed) RNA 1: CACCCGUGCAAAAUUGCAGGGGUCUAAAACCUUCUCCAAAUUGUUUCAUCCU RNA 2: GGGAAUGGAUCCACAUCUACGAAUUCGCCAGGAUGAAACAAUUUGGAGAAGAUGAGAUCGGAAGAGCACACGU	12.9 ± 1.1 nM
